Measured values reported in patent US11608490B2, “Composition for enhancing hair growth-inducing ability of adipose stem cells comprising udenafil as active ingredient” (INDUSTRY-ACADEMIC COOPERATION FOUNDATION, YONSEI UNIVERSITY, priority 2018, dated 2023).

Key:
IL-4 mRNA = assay: qPCR of IL-4 expression level in udenafil-treated adipose stem cells; format: cell-based; settings: adipose stem cells treated with 1 μM udenafil for 3 to 4 days, versus non-udenafil-treated adipose stem cells (Control); FIG. 3
Experimental: (§1) First, adipose stem cells were preconditioned with udenafil to prepare stimulated adipose stem cells. Adipose stem cells were inoculated on a […] and cultured. The following day, 1 μM udenafil was added to the culture medium and additional culture was performed for 3 to 4 days. Subsequently, adherent cultured adipose stem cells were detached with trypsin, and then obtained by centrifugation. The obtained adipose stem cells were prepared by being mixed with 100 μl of PBS.
(§2) Specifically, as performed in Example <1-1>, adipose stem cells were treated with udenafil and cultured. After completion of the culture, the cells were obtained and RNA was extracted from the cells by treatment with TRIZOL™ (Invitrogen, NY, USA). Using the extracted RNA as a template, cDNA was synthesized through RT-PCR using oligodT and HELIXCRIPT™ Thermo Reverse Transcription System (NANOHELIX, WI, USA). The synthesized cDNA and BrightGreen qPCR master mix-ROX (abm, NY, US) were added to 96-well qPCR assay Kit for identifying growth factors [RT^2 First Strand (DNA Synthesis Kit (QIAGEN, MD, USA)], to perform a qPCR reaction. The results obtained by performing the qPCR reaction were analyzed using a program which corresponds to the RT^2 First Strand cDNA Synthesis Kit and is provided by QIAGEN, and IL-4 and IL-12B expression levels in the udenafil-treated adipose stem cells were respectively identified.

IL-12B mRNA = assay: qPCR of IL-12B expression level in udenafil-treated adipose stem cells; format: cell-based; settings: adipose stem cells treated with 1 μM udenafil for 3 to 4 days, versus non-udenafil-treated adipose stem cells (Control); FIG. 3
Experimental: as §1, §2

human adipose stem cells [1] = assay: Cell growth assay (live cell number, trypan blue); format: cell-based; settings: 7 days; for proliferation of the adipose stem cells (live cell number): IL-4 or IL-12B 100 ng/ml, FIG. 7(A)
Experimental: (§3) Human adipose stem cells were isolated via liposuction of subcutaneous fat, as described in a previous study: Briefly, the fat was washed with phosphate-buffered saline (PBS), 0.075% collagenase was added, and the mixture was incubated for 45 minutes at 37° C. with gentle shaking. After centrifugation, the pellet was filtered through a 100 am nylon mesh. Then, the cells were cultured with an essential medium containing alpha Minimum Essential Medium (α-MEM) (Hyclone, Logan, Utah, USA), 10% fetal bovine serum (FBS) (Gibco, Carlsbad, Calif., USA), and 1% antibiotics (Gibco) for three passages. Then, the medium was changed to contain α-MEM, 10% FBS, and 1% penicillin/streptomycin (Gibco), and the cells were cultured for four passages. The adipose stem cells at passages 5 to 7 were used for all experiments. Characterization of the adipose stem cells was performed using flow cytometry. The adipose stem cells were positive for CD44, CD73, CD90, CD105, human leukocyte antigen (HLA)-I, and podocalyxin-like protein (PODXL), and were negative for hematopoietic markers such as CD34 and CD45. A multipotent differentiation potential was examined, as described in a previous study; as a result, the adipose stem cells could be differentiated into adipocytes, osteocytes, and chondrocytes. The adipose stem cells were maintained at 37° C. in a humidified 5% CO2 incubator.
For cell growth assay, the adipose stem cells were seeded in 12-well plates, with 5×10^3 cells/well, treated with udenafil (0.1, 0.5, or 1 μM), and incubated for 7 days. The adipose stem cells were also seeded in 12-well plates, with 1×10^4 cells/well, treated with a synthetic peptide of IL-4 or IL-12B (100 ng/ml), and incubated for 7 days. The cells were then trypsinized, stained with trypan blue (Sigma-Aldrich, MO, USA), and counted each day using a hemocytometer.

human adipose stem cells [2] = assay: Scratch wound-healing assay; format: cell-based; settings: for migration of the adipose stem cells, scratch wound-healing assay: IL-4 or IL-12B in serum-free medium for 3 days, FIG. 7 (B to E)
Experimental: as §3
The adipose stem cells were seeded into 6-well plates and cultured to confluence. A sterile 1 ml pipette tip was used to scratch the cell monolayer. The cultures were then washed with PBS to remove de-plated cells, and the cells were again cultured with udenafil, or IL-4, and IL-12B in a serum-free medium for 3 days. Cell migration into the scratched area (wound closure) was visualized using a ZEISS™ Observer D1 microscope. Multiple images were acquired per well, and the average cell number within the wound was monitored over 3 days.

human adipose stem cells [3] = assay: Transwell migration assay; format: cell-based; settings: migration 1 day; for migration of the adipose stem cells, transwell migration assay: IL-4 or IL-12B treatment for 3 days, FIG. 7 (B to E)
Experimental: as §3
The adipose stem cells were seeded into 60 mm plates and treated with udenafil IL-4, or IL-12B for 3 days. The adipose stem cells starved for 1 day (1.5×10^4cells/well) were suspended in a serum-free medium and seeded on the upper side of transwell membrane inserts (BD Falcon, CA, USA), which was pre-coated with MATRIGEL™ (1/60 dilution, BD MATRIGEL™ matrix, CA, USA). The normal serum With FBS was added in the lower side thereof as a chemoattractant. […] The inserts were stained with […] solution (Sigma-Aldrich) for 20 minutes, and the cell number was analyzed under a ZEISS™ Observer D1 microscope. Multiple images (15 to 20) were acquired per insert, and the average cell counts were calculated.

human adipose stem cells [4] = assay: Tube formation assay using MATRIGEL; format: cell-based; settings: after 16 hours; FIG. 6(E)
Experimental: as §3, with “chondrocytes. […]” for “chondrocytes.”, “number of tubes was analyzed under” for “adipose stem cells were maintained at 37° C. in”, “ZEISS™ Observer D1 microscope.” for “humidified 5% CO2 incubator.”

C3H mice = assay: Hair growth effect of IL-4 or IL-12B peptide applied to dorsum of mice; format: in vivo, mouse; settings: 100 ng/ml applied to dorsum once a day for 13 to 14 days, FIG. 4; for maturation of hair follicle tissue: H&E staining
Experimental: Specifically, the dorsal hair of 6-week-old C3H mice was completely removed, and 100 ng/ml of an IL-4 peptide or an IL-12B peptide was applied to the dorsum of the mice once a day. It was identified whether the hair was growing while applying the IL-4 peptide or IL-12B peptide for 13 to 14 days. Then, a photograph was taken and the dorsal skin tissue was obtained.

[5] = tested on: vibrissal hair follicle cells; assay: Vibrissal hair follicle culture, length of hair grown; format: cell-based, mouse; settings: 5 ng/ml or 20 ng/ml, 3 days culture, versus non-treated control; FIG. 5
Experimental: In addition, the vibrissal hair follicle of 5-week-old C57b1/6 mice was dissected to obtain hair follicle cells, and the hair follicle cells were transferred to 48-well plates. Then, treatment with 5 ng/ml or 20 ng/ml of an IL-4 peptide or an IL-12B peptide was performed and culture was performed for 3 days. After completion of the culture, the hair follicle tissue was photographed and a length of hair grown therefrom was measured.

[6] = tested on: dermal papilla cells (DP cells); assay: Growth of dermal papilla cells after treatment with IL-4 or IL-12B; format: cell-based; settings: FIG. 8

For CCCOc1ccc(S(=O)(=O)NCCC2CCCN2C)cc1-c1nc(=O)c2c([nH]1)c(CCC)nn2C (centres unmarked) [udenafil], the “IL-4 mRNA expression level” value (IL-4 mRNA) was “about 4 fold”, the “IL-12B mRNA expression level” value (IL-12B mRNA) was “about 6 fold” and the “growth of adipose stem cells (live cell number)” value (human adipose stem cells [1]; udenafil 0.1, 0.5 or 1 μM, FIG. 6(A)) was “increases growth of adipose stem cells in a time- and dose-dependent manner”. The “ASC migration, scratch wound-healing assay” value (human adipose stem cells [2]; udenafil in serum-free medium for 3 days, FIG. 6 (B to D)) was “increases ASC migration in both assays in a dose-dependent manner”, the “ASC migration, transwell migration assay” value (human adipose stem cells [3]; udenafil treatment for 3 days, FIG. 6 (B to D)) was “increases ASC migration in both assays in a dose-dependent manner” and the “number of nascent tubes (tube-forming activity)” value (human adipose stem cells [4]) was “increases the number of nascent tubes”.

B1: IL-4 peptide: cytokine whose expression is increased in udenafil-treated adipose stem cells; called IL-4 peptide, synthetic peptide of IL-4, IL-4 protein (protein, UniProt P05112 25-153, looked up)
Interleukin-4: HKCDITLQEIIKTLNSLTEQKTLCTELTVTDIFAASKNTTEKETFCRAATVLRQFYSHHEKDTRCLGATAQQFHRHKQLIRFLKRLDRNLWGLAGLNSCPVKEANQSTLENFLERLKTIMREKYSKCSS
In the case of B1, the hair growth effect (C3H mice) is reported as “increased hair growth effect”, the “maturation of hair follicle tissue” value (C3H mice) is reported as “significantly maturated” and the “length of hair grown from the hair follicle cells” value [5] is reported as “longer than that of the non-treated control”. The “proliferation of the adipose stem cells (live cell number)” value (human adipose stem cells [1]) was “not”, the “migration of the adipose stem cells, scratch wound-healing assay” value (human adipose stem cells [2]) was “increase migration of the adipose stem cells in a dose-dependent manner” and the “migration of the adipose stem cells, transwell migration assay” value (human adipose stem cells [3]) was “increase migration of the adipose stem cells in a dose-dependent manner”. For the same molecule, the “growth of the DP cells” value [6] was “increased growth of the DP cells”.

B2: IL-12B peptide: cytokine whose expression is increased in udenafil-treated adipose stem cells; called IL-12B peptide, synthetic peptide of IL-12B, IL-12B protein (protein, UniProt P29460 23-328, looked up)
Interleukin-12 subunit beta: IWELKKDVYVVELDWYPDAPGEMVVLTCDTPEEDGITWTLDQSSEVLGSGKTLTIQVKEFGDAGQYTCHKGGEVLSHSLLLLHKKEDGIWSTDILKDQKEPKNKTFLRCEAKNYSGRFTCWWLTTISTDLTFSVKSSRGSSDPQGVTCGAATLSAERVRGDNKEYEYSVECQEDSACPAAEESLPIEVMVDAVHKLKYENYTSSFFIRDIIKPDPPKNLQLKPLKNSRQVEVSWEYPDTWSTPHSYFSLTFCVQVQGKSKREKKDRVFTDKTSATVICRKNASISVRAQDRYYSSSWSEWASVPCS
For B2, the hair growth effect (C3H mice) was “increased hair growth effect”, the “maturation of hair follicle tissue” value (C3H mice) was “significantly maturated” and the “length of hair grown from the hair follicle cells” value [5] was “longer than that of the non-treated control”. The “proliferation of the adipose stem cells (live cell number)” value (human adipose stem cells [1]) was “increases proliferation of the adipose stem cells in a time- and dose-dependent manner”, the “migration of the adipose stem cells, scratch wound-healing assay” value (human adipose stem cells [2]) was “increase migration of the adipose stem cells in a dose-dependent manner” and the “migration of the adipose stem cells, transwell migration assay” value (human adipose stem cells [3]) was “increase migration of the adipose stem cells in a dose-dependent manner”. The “growth of the DP cells” value [6] was “increased growth of the DP cells”.
